# Experimental data taken from the nanobody polyreactivity screen of Harvey et al. (2022).
# Experiment: yeast display, Sf9 membrane polyspecificity reagent, FACS + sequencing; frameworks hold sequencing errors
# Method in brief: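 Synthetic nanobody libraries on Saccharomyces cerevisiae BJ5465 were galactose-induced for 36–48 hours, stained 1 hour at 4 °C with 10% biotinylated, detergent-solubilized Sf9 membrane reagent and enriched on streptavidin microbeads. FACS then separated cells into low and high (top ~1%) gates by anti-HA (expression) and streptavidin (reagent binding) fluorescence. Genes were colony-PCR amplified, MiSeq 2 × 250 sequenced and CDR-length filtered. A clone's polyreactivity label is that of its gate of origin.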
row,Sequence,polyreactivity (PSR sort gate)
1,QVQLVESGGGLVQAGGSLRLSCAASGSTFAGNAMGWSRQAPGKERELVAGITSSGARTYYADSVKGRFTISRDNAKNTVYLQMNSLKPEDTAVYYCNKYHFSPYDYWGQGTQVTVSS,high polyreactivity
2,QVQLVESGGGLVQAGGSLRLSCAASGSTFAGNAMGWYRQAPGKEREFVAAITISVGSTYYADSVKGRFTISRDNAKNTVYLQMNSLTPEDTAVYYCAADFAYYVSLPSRFVYAGYYYWGQGTQVTVTS,low polyreactivity
3,QVQLVESGGGLVQAGGSLRLSCAASGSTFAGNAMGWYRQAPGKERELVAASTFSGGRTDYADSVKGRFTISRDNAKNTVYLQMNSLNPEDSAVYYCAAPADDTVHYQNYYWGQGTQVTVSS,low polyreactivity
4,QVQLVESGGGLVQAGGSLRLSCAASGSTFAGYAMGWYRQAPGKERELVATITYSGGSTYYADSVKGRFTISRDNAKNTVYLQKNSLKPEDTAVYYCAKKASYWWGYEYWGQGTQVTVSS,low polyreactivity
5,QVQLVESGGGLVQAGGSLRLSCAASGSTFAGYTMGWYRQAPGKERELVAAITGGGSTYYADSVKGRFTISRDNAKNTVYLQMNSLKPEDTAVYYCAARWWTYGIGYGYWGQGTQVTVSS,high polyreactivity
6,QVQLVESGGGLVQAGGSLRLSCAASGSTFAKNAMGWYRQAPGKERELVAAISSGGSTYYADSVKGRFTISRDNAKNTVYLQMNSLKPEDTAVYYCAASWKQGYRTYGYWGQGTQVTVSS,high polyreactivity
7,QVQLVESGGGLVQAGGSLRLSCAASGSTFAKNAMGWYSQAPGIDRELVAAISSGGSTYYADSVKGRFTIARDNAKNTVYLQMNSLKPEDTAVYYCAASWIQGYRTYGYWGQGTQVTVSS,high polyreactivity
8,QVQLVESGGGLVQAGGSLRLSCAASGSTFAKYAMGWYRQAPGKERELVASIRLSGGSTYYADSVKGRFTISRDNAKNTVYLQMNSLNPEDTAVYYCNKQFATFYYGFDYYYWGQGTQVTVSS,low polyreactivity
9,QVQLVESGGGLVQAGGSLRLSCAASGSTFAKYAMGWYRQAPGKERELVATITDGGSTYYADSVKGRFTISRDNAKNTVYLQMNRMKPEDTAVYYCNAVILYWLYTSYVAGWPYDYWGQGTQVTVSS,high polyreactivity
10,QVQLVESGGGLVQAGGSLRLSCAASGSTFAKYVMGWYRQAHGKERELVAAISRRGSSTYYADSVKGRFTISRDNAKNTVYLQMNSLKPEDTAVYYCAARFRYSGFEGMDYWGQGTQVTVSS,high polyreactivity
11,QVQLVESGGGLVQAGGSLRLSCAASGSTFANNAMGWYRQAPGKERELVAAISWSGGSTYYADSVKGRFTISRDNAKNTVYLQMNSLKPEDTAVYYCAADSPRYGGYGYWGQGTKVTVSS,low polyreactivity
12,QVQLVESGGGLVQAGGSLRLSCAASGSTFANYAMGWYRQAPGKERELVAGISWRGGRTYYADSVKGRFTISRDNAKNTVYLQMNSLKPEDTAVYYCAVVHQTFTGDYWGQGTQVTVSS,high polyreactivity
13,QVQLVESGGGLVQAGGSLRLSCAASGSTFAPYVMGCYRQAPGKQRELVAAIRFNGGRTHYADSVKGRFTISRDNAKNTVYLQMNSLKPEDTAVYYCAAEQWRRRNYWGQGTQVTVSS,high polyreactivity
14,QVQLVESGGGLVQAGGSLRLSCAASGSTFAQNAMGWYRQAPGKEREFVAAITGTVGSTYYADSVKGRFTISRDNAKNTVYLQMNSLKPEDTAVYYCNTRGFNGRVYPYDYWGQGTQVTVSS,low polyreactivity
15,QVQLVESGGGLVQAGGSLRLSCAASGSTFAQNTMGWYRQAPGKERELVATISDGGGSTYYADSVKGRFTISRDIAKNTVYLQMNSLKPEDTAVYYCNTDRFWPSDYWGQGTQVTVSS,low polyreactivity
16,QVQLVESGGGLVQAGGSLRLSCAASGSTFARNAMGWYRQAPGKERDLVAAITWSGGNTYYADSVKGRFTISRDNAKNTVYLQMNSLKPEDSAVYYCNKATRHHFYYWGQGTQVTVSS,high polyreactivity
17,QVQLVESGGGLVQAGGSLRLSCAASGSTFARNAMGWYRQAPGKERELVAAITYSGGRTYYADSVKGRFTISRDNAKNTVYLQMNSLKPEDTAVYYCAADIVSSTDYPFDYWGQGTQVTVSS,low polyreactivity
18,QVQLVESGGGLVQAGGSLRLSCAASGSTFARNVMGWYRHAPGKERELVAAITRSGGSTYYADSVKGRFTISRDNAKNTVYFQMNSLKPEDTAVYYCNRDFRGLAYSDRYDYWGQGTQVTVSS,low polyreactivity
19,QVQLVESGGGLVQAGGSLRLSCAASGSTFARYAMGWYRQAPGKEREFVAAISASGGRTYYADSVKGRFTISRDNAKNTVYLQMNSLKPEDTAVYYCAVRVYAKYFAKYDYWGQGTQVTVSS,high polyreactivity
20,QVQLVESGGGLVQAGGSLRLSCAASGSTFARYAMGWYRQAPGKERELVAGISTSGGRTYYADSVKGRFTISRDNAKNTVYLQMNSLKPEDTAVYYCAKALSQTWYDGQYGYWGQGTQVTVSS,low polyreactivity
21,QVQLVESGGGLVQAGGSLRLSCAASGSTFARYVMGWYRQAPGKERELVAAIRSTGGRTYYADSVKGRFTISRDNAKNNVYVQMNSLKPEDTAVYYCAAAFGQYSRKRFDYWGQGTQVTVSS,high polyreactivity
22,QVQLVESGGGLVQAGGSLRLSCAASGSTFASNAMGWYRQAPGKDRELVADLSSGGSTYADSVKGRFTISRDNAKNTVYLQMNSLKPVDTAVYYCNNRSYGFLRGPRKTIKYYRYGYWGQGTQVTVSS,high polyreactivity

row,Sequence,polyreactivity (PSR sort gate)
1,QVQLVESGGGLVQAGGSLRLSCAASGSTFASNAMGWYRQAPGKERELVAAITSRDASTYYADSVKGRFTISRDKEKNTVYLQMNSLKPEDTAVYYCAPVGYSPAAFDYWGQGTQVTVSS,low polyreactivity
2,QVQLVESGGGLVQAGGSLRLSCAASGSTFASNPMGGYRQAPGKERELVAAISGSGGSTYYADSVKGRFTISRDNAKNTVYLQMNSMTPEDTAVYYCNAAVAYYSYSYYTKVGVDYWGQGSQVTVSS,high polyreactivity
3,QVQLVESGGGLVQAGGSLRLSCAASGSTFASYAMGSYRQATGKETELVASITRRGGSTDYADSVKGRFTISRDNAKTTVYLQMNSLKPEDTSVYYAVETAWSYNSNYWFDYWGQGTQVTVSS,high polyreactivity
4,QVQLVESGGGLVQAGGSLRLSCAASGSTFASYAMGWDRQAPGKERELVAAITDSGGSTYYADSVKGRFTISRDNAKNTVYLQMNSLKPEDTAVYYCAAYGPYFSYHDYDYWGQGTQVTVSS,low polyreactivity
5,QVQLVESGGGLVQAGGSLRLSCAASGSTFASYAMGWNRQAPGKEREFVAAISRSGGSTYYADSVKWRFTISRDNAKNTVYLQMNSLKPEDTAVYYCAARSPSADEYYFWGQGTQVTVSS,low polyreactivity
6,QVQLVESGGGLVQAGGSLRLSCAASGSTFASYAMGWYRQAPGKERELVAAIRWRGGTTYYADSVKGRFTISRDNAKNTVYLQMNSLKPEDTAVYYCNADRYYLYYYWGQGTQVTVSS,low polyreactivity
7,QVQLVESGGGLVQAGGSLRLSCAASGSTFASYAMGWYRQAPGKERELVAAITNGGSTNYADSVKGRFTISRDNAKNTVYLQMNSLKPEDTAVYYCAAYDGFPRRYDYWGQGTQVTVSS,low polyreactivity
8,QVQLVESGGGLVQAGGSLRLSCAASGSTFAVNVMGWYRQAPGKERELVATITYRDGRTYYADSVKGRFTISRDNAKNTVYLQMNSLNPEDTAVYYCAADDEYKQEAEMDSWGQGTQVTVSS,low polyreactivity
9,QVQLVESGGGLVQAGGSLRLSCAASGSTFAVYAMGWYRQAPGKERELVAVISRGANTNYADSVKGRFTISRDNAKNTVYLQMNSLKPEDTAVYYCAAPSYFTHRGRFDYWGQGTQVTVSS,low polyreactivity
10,QVQLVESGGGLVQAGGSLRLSCAASGSTFAVYAMGWYRQEPGKERELVAVISRGANTNYADSVKGRFTISRDNAKNTVYLQMNSLIPEDTAVYYCAAPSFFTHRGRFDYWGQGTQVTVSS,low polyreactivity
11,QVQLVESGGGLVQAGGSLRLSCAASGSTFAWNAMGWYRQAPGKERELVAAISWSGVRTYYADSVKGRFTISRDNAKNTVYLQMNSLKPEDTAVYYCAAPVYWAYTRSMDYWGQGTQVTVSS,high polyreactivity
12,QVQLVESGGGLVQAGGSLRLSCAASGSTFAWYAMGWYRQAPGKERELVASIRWGGGSTYYADSVKGRFTISRDNAKNTVFLQMHSLKPEDTAVYYCAAYFGYTVGRYNYWGQGTQVTVSS,high polyreactivity
13,QVQLVESGGGLVQAGGSLRLSCAASGSTFAWYAMGWYRQAPGKERELVAVITSTGRTYYADSVKGRFTISRDNAKNTVYLQMNSLKPEDSAVYYCAAQYGGGYLKPYRREYWGQGTQVTVSS,high polyreactivity
14,QVQLVESGGGLVQAGGSLRLSCAASGSTFAWYAMGWYRQATGKETELVAVITRRGGSTYYADSVKGRFTISRDNAKNTVYLQMNSLKPEDTAVYYCAAEYQVSHWYRTASVYDYDSWGQGTQVTVSS,high polyreactivity
15,QVQLVESGGGLVQAGGSLRLSCAASGSTFAWYTMGWYRQAPGKERELVARISGSVGSTYYADSVKGRFTISRDNAKNTVYLQMNSLKPEDTAVYYCAAVYDEDQYDYWGQGTQVTVSS,low polyreactivity
16,QVQLVESGGGLVQAGGSLRLSCAASGSTFAYNAMGGYRKAPGKERELVATISTDGSTYADSVKGRFTISRDNAKNTVYLQMNSLKPEDTAVYYCNADGHPSDPGYDYWGQGTHVTVSS,low polyreactivity
17,QVQLVESGGGLVQAGGSLRLSCAASGSTFAYNAMGWYRQAPGKERELVAAISGSTTRTYYADSVKGRFTISRDNAKNTVYLQMNSLKPEDTAVYYCAAGIPFRQRLRRYYYWGQGTQVTVSS,high polyreactivity
18,QVQLVESGGGLVQAGGSLRLSCAASGSTFAYNAMGWYRQAPGKERELVASISQSGVSTYYADSVKGRFTISRDNAKNTVYLQMNSLKPEDTAVYYCNTEIYYRSYEDDYWGQGSQVTVSS,low polyreactivity
19,QVQLVESGGGLVQAGGSLRLSCAASGSTFAYNAMGWYRQAPGKERELVATITSGGSTSYADSVKGRFTISRDNAKNTVYLQMNSLKPEDTAVYYCAARKVTKSTYNYWGQGTQVTVSS,low polyreactivity
20,QVQLVESGGGLVQAGGSLRLSCAASGSTFAYNDMGWYRQAPGKERELVADIRSGGNTNYADSVKGRFTISRDNAKNTVYLHMNSLKPEATAVYYCATDGYRIDVYHPDYRYDYWGQGTQVTVSS,low polyreactivity
21,QVQLVESGGGLVQAGGSLRLSCAASGSTFAYNDMGWYRQAPGKERELVADIRSGGNTNYADSVKGRFTISRDNAKNTVYLQMNSLKPEDTAVYYCASDGYRIDVYHPDYRYDYWGQGTQVTVSS,low polyreactivity
